Reference: patent publication EP0530937A1

Key:
[1] = biological target: collagen receptor on human platelets (human); test: adhesion of platelets to a plate coated with collagen type I with 10 µl Superose-pool (0.5 mg protein/ml), 2 mM Mg2+
[2] = biological target: collagen receptor on MTLn3 cells (rat mammary tumor cells) (rat); test: adhesion of 51Cr-labelled MTLn3 cells to wells coated with collagen type III with 2 µl Superose-pool (0.5 mg protein/ml)
[3] = biological target: collagen receptor on human platelets (human); test: adhesion of platelets to a plate coated with collagen type I with 50 µl Superose-pool (0.5 mg protein/ml), 2 mM Mg2+
[4] = biological target: collagen receptor on MTLn3 cells (rat mammary tumor cells) (rat); test: adhesion of 51Cr-labelled MTLn3 cells to wells coated with collagen type III with 5 µl Superose-pool (0.5 mg protein/ml)
[5] = biological target: collagen receptor on MTLn3 cells (rat mammary tumor cells) (rat); test: adhesion of 51Cr-labelled MTLn3 cells to wells coated with collagen type III with 10 µl Superose-pool (0.5 mg protein/ml)

**Q.** “collagen-induced platelet aggregation inhibitor from saliva of Triatoma pallidipennis (as saliva or as partially purified "Superose"-pool)” was tested. Which adherent platelets per mm² (adherent platelets per mm²) [1] did it give?
**A.** 12000

**Q.** What about the cell attachment (cpm) [2] of the same substance?
**A.** 2070 cpm

**Q.** What about the adherent platelets per mm² (adherent platelets per mm²) [3] of the same substance?
**A.** 6500

**Q.** And the cell attachment (cpm) [4]?
**A.** 1610 cpm

**Q.** And the cell attachment (cpm) [5]?
**A.** 1080 cpm
